Some targets named below: WT1 ZF2-4 Q369H (-KTS) (Homo sapiens, UniProt P19544-4 350-437, Q369H); WT1 ZF2-4 Q369K (-KTS) (Homo sapiens, UniProt P19544-4 350-437, Q369K); Egr1 three-finger domain (UniProt P18146 335-423); WT1 ZF2-4 Q369P (-KTS) (Homo sapiens, UniProt P19544-4 350-437, Q369P).
What all share (assay): fluorescence polarization
The target in series [1] is T1, WT1 ZF2-4 Q369R (-KTS) (Homo sapiens, UniProt P19544-4 350-437, Q369R).
For series [2], the target named is T1, WT1 ZF2-4 Q369R (-KTS). The source holds these as a separate data set.

Some results are limits rather than exact numbers.

B1: Fig1 oligo X=G (dsDNA)
DNA 1: AGCGTGGGGGT
DNA 2: TACCCCCACGC
modifications: 5mC at strand 1 pos 3 and strand 2 pos 9
With B1, the figures for the Kd in the series with WT1 ZF2-4 Q369H (-KTS), in the series with WT1 ZF2-4 Q369K (-KTS) and with WT1 ZF2-4 Q369R (-KTS) [1] were < 3 nM, 14 nM and 24 nM, respectively.

B2: Fig1 oligo X=T (dsDNA)
DNA 1: AGCGTGGGTGT
DNA 2: TACACCCACGC
modifications: 5mC at strand 1 pos 3 and strand 2 pos 9
On to B2, for which the binding result in the series with Egr1 three-finger domain and with WT1 ZF2-4 Q369P (-KTS) was “binds” throughout.

B3: Fig1 oligo X=A (dsDNA)
DNA 1: AGCGTGGGAGT
DNA 2: TACTCCCACGC
modifications: 5mC at strand 1 pos 3 and strand 2 pos 9
B3 showed a Kd with WT1 ZF2-4 Q369H (-KTS) of 8 nM. In addition, the binding signal with WT1 ZF2-4 Q369R (-KTS) [2] was ~5 fold lower affinity than X=G.

The values are drawn from PMC5137435.
